Source: patent US20210324051A1 (published 2021)

Tests used:
Assay in all cases: ELISA
[1] = target: T1, EBOV Mayinga strain GP ectodomain containing the glycan cap and mucin-like domain (Ebola virus, Mayinga strain, UniProt Q05320 33-650)
T1 chain: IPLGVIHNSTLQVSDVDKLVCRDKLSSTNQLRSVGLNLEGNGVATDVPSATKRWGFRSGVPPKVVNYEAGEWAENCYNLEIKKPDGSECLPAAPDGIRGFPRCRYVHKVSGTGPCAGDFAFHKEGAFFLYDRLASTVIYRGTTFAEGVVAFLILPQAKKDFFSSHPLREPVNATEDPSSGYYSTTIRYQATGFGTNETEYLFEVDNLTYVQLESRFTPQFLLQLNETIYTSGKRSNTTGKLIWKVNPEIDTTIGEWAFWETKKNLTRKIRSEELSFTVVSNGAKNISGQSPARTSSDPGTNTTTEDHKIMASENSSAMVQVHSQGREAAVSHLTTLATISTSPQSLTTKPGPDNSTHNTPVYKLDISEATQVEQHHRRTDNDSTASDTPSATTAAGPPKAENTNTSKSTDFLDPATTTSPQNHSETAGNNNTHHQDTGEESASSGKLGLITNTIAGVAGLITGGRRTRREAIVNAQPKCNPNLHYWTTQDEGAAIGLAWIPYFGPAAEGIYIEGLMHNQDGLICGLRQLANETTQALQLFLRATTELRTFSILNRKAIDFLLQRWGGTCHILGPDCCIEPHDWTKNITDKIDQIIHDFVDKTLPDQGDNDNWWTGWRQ

[2] = target: Angola strain MARV GP ectodomain lacking residues 257-425 of the mucin-like domain (Marburg virus, Angola strain, UniProt Q1PD50 19-648)
[3] = target: T2, Angola strain MARV GP ectodomain containing the mucin-like domain (Marburg virus, Angola strain, UniProt Q1PD50 19-648)
T2 chain: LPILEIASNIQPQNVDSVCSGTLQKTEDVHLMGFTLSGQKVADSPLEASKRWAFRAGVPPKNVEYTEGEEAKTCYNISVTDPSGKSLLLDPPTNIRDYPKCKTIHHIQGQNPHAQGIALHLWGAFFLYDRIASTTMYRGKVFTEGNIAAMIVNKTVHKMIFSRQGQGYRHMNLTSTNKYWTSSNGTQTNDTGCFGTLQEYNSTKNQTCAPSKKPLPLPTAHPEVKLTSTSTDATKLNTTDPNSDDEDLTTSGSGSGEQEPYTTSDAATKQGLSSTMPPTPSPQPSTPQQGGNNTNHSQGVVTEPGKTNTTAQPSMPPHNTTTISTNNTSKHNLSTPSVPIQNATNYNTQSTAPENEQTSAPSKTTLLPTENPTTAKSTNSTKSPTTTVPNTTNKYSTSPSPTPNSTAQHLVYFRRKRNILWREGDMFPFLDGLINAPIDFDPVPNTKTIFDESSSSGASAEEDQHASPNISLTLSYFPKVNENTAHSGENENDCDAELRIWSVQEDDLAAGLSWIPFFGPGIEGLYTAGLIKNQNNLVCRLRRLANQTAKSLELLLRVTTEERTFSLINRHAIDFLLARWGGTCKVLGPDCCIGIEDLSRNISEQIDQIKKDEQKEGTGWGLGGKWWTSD

[4] = target: T3, Ravn strain cleaved MARV GP ectodomain (Marburg virus, Ravn strain, UniProt Q1PDC7 19-648)
T3 chain: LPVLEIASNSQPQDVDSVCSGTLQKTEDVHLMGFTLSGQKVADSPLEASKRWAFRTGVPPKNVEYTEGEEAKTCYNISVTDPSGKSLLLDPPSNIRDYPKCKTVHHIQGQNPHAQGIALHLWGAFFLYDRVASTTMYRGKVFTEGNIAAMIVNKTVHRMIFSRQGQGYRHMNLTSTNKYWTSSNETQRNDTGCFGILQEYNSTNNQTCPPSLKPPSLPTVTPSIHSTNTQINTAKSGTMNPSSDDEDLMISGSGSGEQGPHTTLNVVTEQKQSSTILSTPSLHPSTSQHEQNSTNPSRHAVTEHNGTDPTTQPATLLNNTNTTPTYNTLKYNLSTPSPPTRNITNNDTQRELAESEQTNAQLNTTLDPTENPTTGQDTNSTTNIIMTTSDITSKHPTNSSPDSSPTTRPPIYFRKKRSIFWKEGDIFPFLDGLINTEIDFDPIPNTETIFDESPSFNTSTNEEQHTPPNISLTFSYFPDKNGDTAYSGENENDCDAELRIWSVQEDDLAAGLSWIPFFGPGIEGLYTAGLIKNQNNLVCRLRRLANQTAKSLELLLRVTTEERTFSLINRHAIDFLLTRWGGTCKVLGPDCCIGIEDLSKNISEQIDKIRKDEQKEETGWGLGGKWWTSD

[5] = target: EBOV Mayinga strain GP ectodomain lacking residues 314-462 of the mucin-like domain (Ebola virus, Mayinga strain, UniProt Q05320 33-650)
[6] = target: T4, EBOV Mayinga strain cleaved GP ectodomain (Ebola virus, Mayinga strain, UniProt Q05320 33-650)
T4 chain: T1 chain

B1: MR201 (antibody, V domains shown)
VH: QLQLQESGPGLVKPSETLFLSCAVSGGSIAGSTHYWGWIRQPPGKGLEWIGSISESGSTYHNPSLKSRVTISVDTSKNYFSLNLSSVTAADTAVYYCARIVGQSGTFIYYYYAMDVWGTGTLVTVSS
VL: DIQLTQSPSFLSASVGDRVTITCRASQGISSYLAWYQQKPGKAPKLLIYAASTLQRGVPSRFSGSGSGTEFTLTISSLQPEDSATYYCQQLNSYLALIFGGGT
- EC50 [1]: > 1000 µg/mL
- EC50 [2]: 1.9 µg/mL
- EC50 [3]: 1.5 µg/mL
- EC50 [4]: 0.5 µg/mL
- EC50 [5]: > 1000 µg/mL
- EC50 [6]: > 1000 µg/mL

B2: MR78 human monoclonal antibody (antibody, V domains shown)
VH: QLQLQESGPGLVKPSETLSLTCTVSGGSISSSSYYWGWIRQPPGKGLEWIGSVYYSGGASYNPSLKSRATISVDTSKNQFSLNLDSVSAADTAIYYCASIYGSGTFYYYFYMDVWGKGSTVTVSS
VL: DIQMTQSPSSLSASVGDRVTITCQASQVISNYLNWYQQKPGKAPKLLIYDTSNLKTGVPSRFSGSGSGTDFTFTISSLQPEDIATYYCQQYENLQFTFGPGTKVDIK
- EC50 [1]: > 1000 µg/mL
- EC50 [2]: 2.3 µg/mL
- EC50 [3]: 1.4 µg/mL
- EC50 [4]: 1.1 µg/mL
- EC50 [5]: > 1000 µg/mL
- EC50 [6]: 107 µg/mL
